Measured values reported in patent US20210388087A1 (Chugai, published 2021).

target: T1, Human CD137 ECD (human); test: Biacore SPR, vs parent H183/L072
T1 construct: entry includes C-terminal His-tag and biotin acceptor peptide; also called human CD137 extracellular domain; 4-1BB
T1 sequence (chain, as listed by the source limits assumed): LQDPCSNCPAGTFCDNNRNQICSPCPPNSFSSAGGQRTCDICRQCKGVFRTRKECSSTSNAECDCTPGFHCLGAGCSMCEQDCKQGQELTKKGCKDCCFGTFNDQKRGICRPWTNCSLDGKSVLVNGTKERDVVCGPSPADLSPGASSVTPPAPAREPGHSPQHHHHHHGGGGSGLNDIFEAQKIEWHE

fold change of affinity [fold] | Binder
0 | H183/L072 VL T92E (antibody, name in Kabat numbering, V domains shown, Dual-Ig) VH: QVQLVESGGGLVQPGRSLRLSCAASGFTFSNAWMHWVRQAPGKGLEWVAQIKDKGNAYAAYYAPSVKGRFTISRDDSKNSIYLQMNSLKTEDTAVYYCHYVHYASASTVLPAFGVDAWGQGTTVTVSS VL: DIVMTQSPLSLPVTPGEPASISCQASQELVHMNRNTYLHWYQQKPGQAPRLLIYKVSNRFPGVPDRFSGSGSGTDFTLKISRVEAEDVGVYYCAQGESVPFTFGQGTKLEIK
0 | H183/L072 VL T92F (antibody, name in Kabat numbering, V domains shown, Dual-Ig) VH: QVQLVESGGGLVQPGRSLRLSCAASGFTFSNAWMHWVRQAPGKGLEWVAQIKDKGNAYAAYYAPSVKGRFTISRDDSKNSIYLQMNSLKTEDTAVYYCHYVHYASASTVLPAFGVDAWGQGTTVTVSS VL: DIVMTQSPLSLPVTPGEPASISCQASQELVHMNRNTYLHWYQQKPGQAPRLLIYKVSNRFPGVPDRFSGSGSGTDFTLKISRVEAEDVGVYYCAQGFSVPFTFGQGTKLEIK
0.4 | H183/L072 VL T92G (antibody, name in Kabat numbering, V domains shown, Dual-Ig) VH: QVQLVESGGGLVQPGRSLRLSCAASGFTFSNAWMHWVRQAPGKGLEWVAQIKDKGNAYAAYYAPSVKGRFTISRDDSKNSIYLQMNSLKTEDTAVYYCHYVHYASASTVLPAFGVDAWGQGTTVTVSS VL: DIVMTQSPLSLPVTPGEPASISCQASQELVHMNRNTYLHWYQQKPGQAPRLLIYKVSNRFPGVPDRFSGSGSGTDFTLKISRVEAEDVGVYYCAQGGSVPFTFGQGTKLEIK
0 | H183/L072 VL T92H (antibody, name in Kabat numbering, V domains shown, Dual-Ig) VH: QVQLVESGGGLVQPGRSLRLSCAASGFTFSNAWMHWVRQAPGKGLEWVAQIKDKGNAYAAYYAPSVKGRFTISRDDSKNSIYLQMNSLKTEDTAVYYCHYVHYASASTVLPAFGVDAWGQGTTVTVSS VL: DIVMTQSPLSLPVTPGEPASISCQASQELVHMNRNTYLHWYQQKPGQAPRLLIYKVSNRFPGVPDRFSGSGSGTDFTLKISRVEAEDVGVYYCAQGHSVPFTFGQGTKLEIK
0.1 | H183/L072 VL T92I (antibody, name in Kabat numbering, V domains shown, Dual-Ig) VH: QVQLVESGGGLVQPGRSLRLSCAASGFTFSNAWMHWVRQAPGKGLEWVAQIKDKGNAYAAYYAPSVKGRFTISRDDSKNSIYLQMNSLKTEDTAVYYCHYVHYASASTVLPAFGVDAWGQGTTVTVSS VL: DIVMTQSPLSLPVTPGEPASISCQASQELVHMNRNTYLHWYQQKPGQAPRLLIYKVSNRFPGVPDRFSGSGSGTDFTLKISRVEAEDVGVYYCAQGISVPFTFGQGTKLEIK
0 | H183/L072 VL T92K (antibody, name in Kabat numbering, V domains shown, Dual-Ig) VH: QVQLVESGGGLVQPGRSLRLSCAASGFTFSNAWMHWVRQAPGKGLEWVAQIKDKGNAYAAYYAPSVKGRFTISRDDSKNSIYLQMNSLKTEDTAVYYCHYVHYASASTVLPAFGVDAWGQGTTVTVSS VL: DIVMTQSPLSLPVTPGEPASISCQASQELVHMNRNTYLHWYQQKPGQAPRLLIYKVSNRFPGVPDRFSGSGSGTDFTLKISRVEAEDVGVYYCAQGKSVPFTFGQGTKLEIK
0.2 | H183/L072 VL T92L (antibody, name in Kabat numbering, V domains shown, Dual-Ig) VH: QVQLVESGGGLVQPGRSLRLSCAASGFTFSNAWMHWVRQAPGKGLEWVAQIKDKGNAYAAYYAPSVKGRFTISRDDSKNSIYLQMNSLKTEDTAVYYCHYVHYASASTVLPAFGVDAWGQGTTVTVSS VL: DIVMTQSPLSLPVTPGEPASISCQASQELVHMNRNTYLHWYQQKPGQAPRLLIYKVSNRFPGVPDRFSGSGSGTDFTLKISRVEAEDVGVYYCAQGLSVPFTFGQGTKLEIK
0.4 | H183/L072 VL T92M (antibody, name in Kabat numbering, V domains shown, Dual-Ig) VH: QVQLVESGGGLVQPGRSLRLSCAASGFTFSNAWMHWVRQAPGKGLEWVAQIKDKGNAYAAYYAPSVKGRFTISRDDSKNSIYLQMNSLKTEDTAVYYCHYVHYASASTVLPAFGVDAWGQGTTVTVSS VL: DIVMTQSPLSLPVTPGEPASISCQASQELVHMNRNTYLHWYQQKPGQAPRLLIYKVSNRFPGVPDRFSGSGSGTDFTLKISRVEAEDVGVYYCAQGMSVPFTFGQGTKLEIK
0 | H183/L072 VL T92N (antibody, name in Kabat numbering, V domains shown, Dual-Ig) VH: QVQLVESGGGLVQPGRSLRLSCAASGFTFSNAWMHWVRQAPGKGLEWVAQIKDKGNAYAAYYAPSVKGRFTISRDDSKNSIYLQMNSLKTEDTAVYYCHYVHYASASTVLPAFGVDAWGQGTTVTVSS VL: DIVMTQSPLSLPVTPGEPASISCQASQELVHMNRNTYLHWYQQKPGQAPRLLIYKVSNRFPGVPDRFSGSGSGTDFTLKISRVEAEDVGVYYCAQGNSVPFTFGQGTKLEIK
0 | H183/L072 VL T92P (antibody, name in Kabat numbering, V domains shown, Dual-Ig) VH: QVQLVESGGGLVQPGRSLRLSCAASGFTFSNAWMHWVRQAPGKGLEWVAQIKDKGNAYAAYYAPSVKGRFTISRDDSKNSIYLQMNSLKTEDTAVYYCHYVHYASASTVLPAFGVDAWGQGTTVTVSS VL: DIVMTQSPLSLPVTPGEPASISCQASQELVHMNRNTYLHWYQQKPGQAPRLLIYKVSNRFPGVPDRFSGSGSGTDFTLKISRVEAEDVGVYYCAQGPSVPFTFGQGTKLEIK
0 | H183/L072 VL T92Q (antibody, name in Kabat numbering, V domains shown, Dual-Ig) VH: QVQLVESGGGLVQPGRSLRLSCAASGFTFSNAWMHWVRQAPGKGLEWVAQIKDKGNAYAAYYAPSVKGRFTISRDDSKNSIYLQMNSLKTEDTAVYYCHYVHYASASTVLPAFGVDAWGQGTTVTVSS VL: DIVMTQSPLSLPVTPGEPASISCQASQELVHMNRNTYLHWYQQKPGQAPRLLIYKVSNRFPGVPDRFSGSGSGTDFTLKISRVEAEDVGVYYCAQGQSVPFTFGQGTKLEIK
0 | H183/L072 VL T92R (antibody, name in Kabat numbering, V domains shown, Dual-Ig) VH: QVQLVESGGGLVQPGRSLRLSCAASGFTFSNAWMHWVRQAPGKGLEWVAQIKDKGNAYAAYYAPSVKGRFTISRDDSKNSIYLQMNSLKTEDTAVYYCHYVHYASASTVLPAFGVDAWGQGTTVTVSS VL: DIVMTQSPLSLPVTPGEPASISCQASQELVHMNRNTYLHWYQQKPGQAPRLLIYKVSNRFPGVPDRFSGSGSGTDFTLKISRVEAEDVGVYYCAQGRSVPFTFGQGTKLEIK
0 | H183/L072 VL T92S (antibody, name in Kabat numbering, V domains shown, Dual-Ig) VH: QVQLVESGGGLVQPGRSLRLSCAASGFTFSNAWMHWVRQAPGKGLEWVAQIKDKGNAYAAYYAPSVKGRFTISRDDSKNSIYLQMNSLKTEDTAVYYCHYVHYASASTVLPAFGVDAWGQGTTVTVSS VL: DIVMTQSPLSLPVTPGEPASISCQASQELVHMNRNTYLHWYQQKPGQAPRLLIYKVSNRFPGVPDRFSGSGSGTDFTLKISRVEAEDVGVYYCAQGSSVPFTFGQGTKLEIK
0.3 | H183/L072 VL T92V (antibody, name in Kabat numbering, V domains shown, Dual-Ig) VH: QVQLVESGGGLVQPGRSLRLSCAASGFTFSNAWMHWVRQAPGKGLEWVAQIKDKGNAYAAYYAPSVKGRFTISRDDSKNSIYLQMNSLKTEDTAVYYCHYVHYASASTVLPAFGVDAWGQGTTVTVSS VL: DIVMTQSPLSLPVTPGEPASISCQASQELVHMNRNTYLHWYQQKPGQAPRLLIYKVSNRFPGVPDRFSGSGSGTDFTLKISRVEAEDVGVYYCAQGVSVPFTFGQGTKLEIK
0 | H183/L072 VL T92W (antibody, name in Kabat numbering, V domains shown, Dual-Ig) VH: QVQLVESGGGLVQPGRSLRLSCAASGFTFSNAWMHWVRQAPGKGLEWVAQIKDKGNAYAAYYAPSVKGRFTISRDDSKNSIYLQMNSLKTEDTAVYYCHYVHYASASTVLPAFGVDAWGQGTTVTVSS VL: DIVMTQSPLSLPVTPGEPASISCQASQELVHMNRNTYLHWYQQKPGQAPRLLIYKVSNRFPGVPDRFSGSGSGTDFTLKISRVEAEDVGVYYCAQGWSVPFTFGQGTKLEIK
0.6 | H183/L072 VL T97A (antibody, name in Kabat numbering, V domains shown, Dual-Ig) VH: QVQLVESGGGLVQPGRSLRLSCAASGFTFSNAWMHWVRQAPGKGLEWVAQIKDKGNAYAAYYAPSVKGRFTISRDDSKNSIYLQMNSLKTEDTAVYYCHYVHYASASTVLPAFGVDAWGQGTTVTVSS VL: DIVMTQSPLSLPVTPGEPASISCQASQELVHMNRNTYLHWYQQKPGQAPRLLIYKVSNRFPGVPDRFSGSGSGTDFTLKISRVEAEDVGVYYCAQGTSVPFAFGQGTKLEIK
0 | H183/L072 VL T97D (antibody, name in Kabat numbering, V domains shown, Dual-Ig) VH: QVQLVESGGGLVQPGRSLRLSCAASGFTFSNAWMHWVRQAPGKGLEWVAQIKDKGNAYAAYYAPSVKGRFTISRDDSKNSIYLQMNSLKTEDTAVYYCHYVHYASASTVLPAFGVDAWGQGTTVTVSS VL: DIVMTQSPLSLPVTPGEPASISCQASQELVHMNRNTYLHWYQQKPGQAPRLLIYKVSNRFPGVPDRFSGSGSGTDFTLKISRVEAEDVGVYYCAQGTSVPFDFGQGTKLEIK
0.4 | H183/L072 VL T97E (antibody, name in Kabat numbering, V domains shown, Dual-Ig) VH: QVQLVESGGGLVQPGRSLRLSCAASGFTFSNAWMHWVRQAPGKGLEWVAQIKDKGNAYAAYYAPSVKGRFTISRDDSKNSIYLQMNSLKTEDTAVYYCHYVHYASASTVLPAFGVDAWGQGTTVTVSS VL: DIVMTQSPLSLPVTPGEPASISCQASQELVHMNRNTYLHWYQQKPGQAPRLLIYKVSNRFPGVPDRFSGSGSGTDFTLKISRVEAEDVGVYYCAQGTSVPFEFGQGTKLEIK
0.3 | H183/L072 VL T97F (antibody, name in Kabat numbering, V domains shown, Dual-Ig) VH: QVQLVESGGGLVQPGRSLRLSCAASGFTFSNAWMHWVRQAPGKGLEWVAQIKDKGNAYAAYYAPSVKGRFTISRDDSKNSIYLQMNSLKTEDTAVYYCHYVHYASASTVLPAFGVDAWGQGTTVTVSS VL: DIVMTQSPLSLPVTPGEPASISCQASQELVHMNRNTYLHWYQQKPGQAPRLLIYKVSNRFPGVPDRFSGSGSGTDFTLKISRVEAEDVGVYYCAQGTSVPFFFGQGTKLEIK
0.6 | H183/L072 VL T97G (antibody, name in Kabat numbering, V domains shown, Dual-Ig) VH: QVQLVESGGGLVQPGRSLRLSCAASGFTFSNAWMHWVRQAPGKGLEWVAQIKDKGNAYAAYYAPSVKGRFTISRDDSKNSIYLQMNSLKTEDTAVYYCHYVHYASASTVLPAFGVDAWGQGTTVTVSS VL: DIVMTQSPLSLPVTPGEPASISCQASQELVHMNRNTYLHWYQQKPGQAPRLLIYKVSNRFPGVPDRFSGSGSGTDFTLKISRVEAEDVGVYYCAQGTSVPFGFGQGTKLEIK
0.6 | H183/L072 VL T97H (antibody, name in Kabat numbering, V domains shown, Dual-Ig) VH: QVQLVESGGGLVQPGRSLRLSCAASGFTFSNAWMHWVRQAPGKGLEWVAQIKDKGNAYAAYYAPSVKGRFTISRDDSKNSIYLQMNSLKTEDTAVYYCHYVHYASASTVLPAFGVDAWGQGTTVTVSS VL: DIVMTQSPLSLPVTPGEPASISCQASQELVHMNRNTYLHWYQQKPGQAPRLLIYKVSNRFPGVPDRFSGSGSGTDFTLKISRVEAEDVGVYYCAQGTSVPFHFGQGTKLEIK
